Assay results: PMC2887722 (Molecular cell, 2010)
Substitutions are numbered along the chain they refer to.

T1: His-tagged Uch37 (UniProt Q9Y5K5 1-329)
T1 sequence (looked up): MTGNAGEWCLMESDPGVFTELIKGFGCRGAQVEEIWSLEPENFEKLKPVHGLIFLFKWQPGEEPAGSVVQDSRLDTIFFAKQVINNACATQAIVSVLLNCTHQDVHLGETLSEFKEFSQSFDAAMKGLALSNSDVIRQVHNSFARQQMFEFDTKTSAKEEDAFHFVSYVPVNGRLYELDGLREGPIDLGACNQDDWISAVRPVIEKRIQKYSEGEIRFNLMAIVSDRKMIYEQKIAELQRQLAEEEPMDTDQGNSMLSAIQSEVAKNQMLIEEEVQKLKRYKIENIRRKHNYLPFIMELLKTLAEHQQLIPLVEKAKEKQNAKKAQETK

T2: hRpn2 (797-953) (human, UniProt Q99460 797-953)
T2 sequence (looked up): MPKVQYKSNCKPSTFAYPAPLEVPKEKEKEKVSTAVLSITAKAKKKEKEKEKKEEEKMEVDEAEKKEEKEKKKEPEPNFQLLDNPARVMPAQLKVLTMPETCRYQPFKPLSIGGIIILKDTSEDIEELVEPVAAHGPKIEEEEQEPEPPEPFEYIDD

B1: GST-tagged hRpn2 (797-953) (domain or fragment, human, UniProt Q99460 797-953, looked up)
chain: T2 sequence (looked up)
B2: hRpn13 (253-407) (domain or fragment, human, UniProt Q16186 253-407, looked up)
chain: STAASPTQPIQLSDLQSILATMNVPAGPAGGQQVDLASVLTPEIMAPILANADVQERLLPYLPSGESLPQTADEIQNTLTSPQFQQALGMFSAALASGQLGPLMCQFGLPAEAVEAANKGDVEAFAKAMQNNAKPEQKEGDTKDKKDEEEDMSLD
B3: GST-tagged hRpn13 (253-407) with alanine substitutions of Val286, Asp287, Glu295 and Ile296 (domain or fragment, human, UniProt Q16186 253-407, looked up)
chain: B2 chain with V34A, D35A, E43A, I44A
B4: GST-tagged hRpn13 (253-407) wild-type (domain or fragment, human, UniProt Q16186 253-407, looked up)
chain: B2 chain
B5: hRpn13 (1-150) (domain or fragment, human, UniProt Q16186 1-150, looked up)
chain: MTTSGALFPSLVPGSRGASNKYLVEFRAGKMSLKGTTVTPDKRKGLVYIQQTDDSLIHFCWKDRTSGNVEDDLIIFPDDCEFKRVPQCPSGRVYVLKFKAGSKRLFFWMQEPKTDQDEEHCRKVNEYLNNPPMPGALGASGSSGHELSAL
B6: full length human Rpn13 (hRpn13) (natural protein, UniProt Q16186 1-407, looked up)
chain: MTTSGALFPSLVPGSRGASNKYLVEFRAGKMSLKGTTVTPDKRKGLVYIQQTDDSLIHFCWKDRTSGNVEDDLIIFPDDCEFKRVPQCPSGRVYVLKFKAGSKRLFFWMQEPKTDQDEEHCRKVNEYLNNPPMPGALGASGSSGHELSALGGEGGLQSLLGNMSHSQLMQLIGPAGLGGLGGLGALTGPGLASLLGSSGPPGSSSSSSSRSQSAAVTPSSTTSSTRATPAPSAPAAASATSPSPAPSSGNGASTAASPTQPIQLSDLQSILATMNVPAGPAGGQQVDLASVLTPEIMAPILANADVQERLLPYLPSGESLPQTADEIQNTLTSPQFQQALGMFSAALASGQLGPLMCQFGLPAEAVEAANKGDVEAFAKAMQNNAKPEQKEGDTKDKKDEEEDMSLD

How the values were obtained:
[1] = molecular target: B6; experiment: pull-down
His-tagged Uch37 [2] = molecular target: T1, His-tagged Uch37; experiment: NMR intermolecular NOEs
His-tagged Uch37 [3] = molecular target: T1, His-tagged Uch37; experiment: pull-down
hRpn2 (797-953) = molecular target: T2, hRpn2 (797-953); experiment: NMR titration
ubiquitin = ubiquitin (UniProt P0CG48 1-76); experiment: other fluorescence titration

Binder: B1
binding result [1]: binds

Binder: B2
binding result (His-tagged Uch37 [2]): binds

Binder: B3
binding result (His-tagged Uch37 [3]): binds

Binder: B4
binding result (His-tagged Uch37 [3]): binds

Binder: B5
binding result (hRpn2 (797-953)): binds

Binder: B6
Kd (ubiquitin): 8 ± 0.5 µM
